doi:10.1101/2023.06.20.545120, “Magnetogenetic cell activation using endogenous ferritin” (bioRxiv, 2024)
Changes are numbered by the printed parent chain.

Assays:
human spleen ferritin [1] = biological target: T1, human spleen ferritin (Homo sapiens, UniProt P02794;P02792); experiment: ELISA; first-round screen: crude periplasmic extracts of the clones on coated human spleen ferritin or mouse liver ferritin; absorbance ratio greater than 2.5 selected; conditions: one partner purified
T1 construct: ferritin heavy chain, human, as part of ferritin from spleen; ferritin light chain, human, as part of ferritin from spleen; Tissue ferritin is a shell of heavy and light chains; also called human ferritin; source: bought: Lee Biosolutions (human spleen ferritin)

mouse liver ferritin = biological target: T2, mouse liver ferritin (Mus musculus, UniProt P09528;P29391); experiment: as above; conditions: one partner purified
T2 construct: ferritin heavy chain, mouse, as part of ferritin from liver; ferritin light chain, mouse, as part of ferritin from liver; Tissue ferritin is a shell of heavy and light chains; also called mouse ferritin; mouse ferritin purified from mouse liver; source: bought: Gentaur (purified from mouse liver)

[2] = biological target: T3, endogenous human ferritin of HEK-293T cells (Homo sapiens (HEK-293T, endogenous), UniProt P02794;P02792); experiment: affinity purification with mass spectrometry; the anti-HA immunoprecipitates of nanobody-HA-mCherry from HEK-293T with GFP-mFerritin; LC-MS/MS, abundance from peptides unique to mouse or human ferritin heavy chain; enrichment against cells with GFP-mFerritin alone; conditions: partners not purified
T3 construct: ferritin heavy chain, human; the chain whose unique peptides were quantified; ferritin light chain, human; Only the heavy chain was measured; also called human ferritin heavy chain; FTH1_human

[3] = biological target: T4, GFP-tagged mouse ferritin (Mus musculus (ferritin moiety), UniProt P09528, chimera); experiment: co-IP; HEK-293T co-transfected with nanobody-HA-mCherry and GFP-mFerritin; lysis buffer 50 mM Tris pH 7.5, 300 mM NaCl, 1% NP-40, 0.1% SDS; anti-HA agarose overnight at 4 °C; eluate on SDS-PAGE, Coomassie; conditions: partners not purified
T4 construct: green fluorescent protein, the N-terminal GFP moiety of GFP-mFerritin; the rest of the chimeric ferritin and its linkers; ferritin heavy chain, mouse; found by mass spectrometry as the mouse ferritin of the construct; Runs at about 71 kDa; also called GFP-mFerritin; GFP-ferritin

[4] = biological target: T4, GFP-tagged mouse ferritin; experiment: affinity purification with mass spectrometry; the anti-HA immunoprecipitates of nanobody-HA-mCherry from HEK-293T with GFP-mFerritin; LC-MS/MS, abundance from peptides unique to mouse or human ferritin heavy chain; enrichment against cells with GFP-mFerritin alone; conditions: partners not purified
human spleen ferritin [5] = biological target: T1, human spleen ferritin; experiment: ITC; 10 uM human spleen ferritin in the cell, 75 uM NbFt2 in the syringe, 25 °C; MicroCal Auto-iTC200; conditions: both partners purified

T2 sequence (P09528 whole entry, chain 1 of 2): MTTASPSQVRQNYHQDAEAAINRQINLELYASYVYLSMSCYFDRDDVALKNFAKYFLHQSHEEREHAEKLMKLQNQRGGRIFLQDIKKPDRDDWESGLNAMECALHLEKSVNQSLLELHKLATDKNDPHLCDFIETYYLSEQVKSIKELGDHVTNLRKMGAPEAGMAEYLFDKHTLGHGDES
T2 sequence (P29391 whole entry, chain 2 of 2): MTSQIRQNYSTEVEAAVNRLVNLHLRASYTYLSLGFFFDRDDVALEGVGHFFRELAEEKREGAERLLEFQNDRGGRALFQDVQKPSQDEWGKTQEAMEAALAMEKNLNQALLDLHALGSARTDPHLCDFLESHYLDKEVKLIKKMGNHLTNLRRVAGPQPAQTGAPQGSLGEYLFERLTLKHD
T3 sequence (P02794 whole entry, chain 1 of 2): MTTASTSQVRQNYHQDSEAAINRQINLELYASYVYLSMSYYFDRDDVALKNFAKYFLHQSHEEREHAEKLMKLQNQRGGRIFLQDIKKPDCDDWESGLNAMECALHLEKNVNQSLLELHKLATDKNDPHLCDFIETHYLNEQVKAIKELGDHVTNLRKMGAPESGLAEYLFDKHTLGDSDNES
T3 sequence (P02792 whole entry, chain 2 of 2): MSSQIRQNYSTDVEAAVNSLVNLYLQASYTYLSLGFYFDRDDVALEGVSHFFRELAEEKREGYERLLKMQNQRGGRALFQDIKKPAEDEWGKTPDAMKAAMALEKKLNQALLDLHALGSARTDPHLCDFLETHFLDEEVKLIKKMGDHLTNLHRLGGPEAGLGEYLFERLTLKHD
T1 sequence (P02794 whole entry, chain 1 of 2): as the sequence (P02794 whole entry, chain 1 of 2) above
T1 sequence (P02792 whole entry, chain 2 of 2): as the sequence (P02792 whole entry, chain 2 of 2) above

B1: anti-ferritin nanobody clone 1 (VHH)
VHH: QVQLQESGGGLVQAGGSLRLSCTASGLAFSSYAMGWFRQAPGKEREFVATIGWTGGTTNYADSVKGRFTISRDNARNTVYLQMNSLKVEDTAVYYCAAGLGAPTVVAGSYQHWGQGTQVTVSS
notes: One of the 17 nanobodies of CDR3 groups 6 and 26; also called Nb-Ft clone 1; Nb-Ft-1; source: crude periplasmic extract of the phage display clone (pMECS)
Question: Does B1 bind (human spleen ferritin [1])?
Answer: binds

B2: anti-ferritin nanobody clone 14 (VHH)
VHH: B1 VHH with A14P, T23A, A33G, A49V, T50A, G52P, T54S, G108D
notes: The text calls the preparation partially purified; also called Nb-Ft clone 14; Nb-Ft-14; source: crude periplasmic extract of the phage display clone (pMECS); E. coli WK6, purified (periplasmic extract, cobalt IMAC)
Question: Does B2 bind (mouse liver ferritin)?
Answer: binds

B3: anti-ferritin nanobody clone 3 (VHH)
VHH: B1 VHH with V2G, L11A, T23A, A33G, T50S, G52S, F68L, T104R
notes: One of the 17 nanobodies of CDR3 groups 6 and 26; also called Nb-Ft clone 3; Nb-Ft-3; source: crude periplasmic extract of the phage display clone (pMECS)
Question: Does B3 bind (human spleen ferritin [1])?
Answer: binds

B4: anti-ferritin nanobody clone 5 (VHH)
VHH: B1 VHH with T23A, A33G, T50S, G52S, T54S, F68L, T104R
notes: One of the 17 nanobodies of CDR3 groups 6 and 26; also called Nb-Ft clone 5; Nb-Ft-5; source: crude periplasmic extract of the phage display clone (pMECS)
Question: Does B4 bind (human spleen ferritin [1])?
Answer: binds

B5: anti-ferritin nanobody clone 10 fused to HA-tagged mCherry (VHH)
VHH: B1 VHH with T23A, A33G, A49V, T50A, G52P, T54S, G108D
notes: the VHH as in m12; also called Nb-Ft-10; Nb-Ft-HA-mCherry (clone 10)
Question: For B5, which “fold enrichment in the immunoprecipitate over cells with GFP-mFerritin alone” value (shortened to “fold enrichment in the immunoprecipitate”) [2] is on record?
Answer: 7 fold

Question: Does B5 bind [3]?
Answer: binds

B6: anti-ferritin nanobody clone 7 (VHH)
VHH: B1 VHH with T23A, T50A, G52M, T54S, A75V, T91A, G108D, Y110F
notes: One of the 17 nanobodies of CDR3 groups 6 and 26; also called Nb-Ft clone 7; Nb-Ft-7; source: crude periplasmic extract of the phage display clone (pMECS)
Question: Does B6 bind (human spleen ferritin [1])?
Answer: binds

B7: anti-ferritin nanobody clone 12 (VHH)
VHH: B1 VHH with T23A, A33G, K43E, T50A, G52S, T54S, S63F
notes: One of the 17 nanobodies of CDR3 groups 6 and 26; also called Nb-Ft clone 12; Nb-Ft-12; source: crude periplasmic extract of the phage display clone (pMECS)
Question: Does B7 bind (mouse liver ferritin)?
Answer: binds

B8: anti-ferritin nanobody clone 6 (VHH)
VHH: B1 VHH with T23A, A33G, T50A, T69I, T104M, A107V
notes: One of the 17 nanobodies of CDR3 groups 6 and 26; also called Nb-Ft clone 6; Nb-Ft-6; source: crude periplasmic extract of the phage display clone (pMECS)
Question: Does B8 bind (human spleen ferritin [1])?
Answer: binds

B9: anti-ferritin nanobody clone 14 fused to HA-tagged mCherry (VHH)
VHH: B1 VHH with A14P, T23A, A33G, A49V, T50A, G52P, T54S, G108D
notes: the VHH as in m16; In the functional row this id stands for the same VHH fused to the N-terminus of TRPV1; also called Nb-Ft-14; Nb-Ft-HA-mCherry (clone 14)
Question: B9 was tested. Which “fold enrichment in the immunoprecipitate” value [2] did it give?
Answer: 5.1 fold

Question: Does B9 bind [3]?
Answer: binds

B10: anti-ferritin nanobody clone 9 (VHH)
VHH: B1 VHH with T23A, A33G, T50A, G52R, T54S, A75V, V79A, G108D
notes: The text calls the preparation partially purified; also called Nb-Ft clone 9; Nb-Ft-9; source: crude periplasmic extract of the phage display clone (pMECS); E. coli WK6, purified (periplasmic extract, cobalt IMAC)
Question: Does B10 bind (mouse liver ferritin)?
Answer: binds

B11: anti-ferritin nanobody clone 10 (VHH)
VHH: B1 VHH with T23A, A33G, A49V, T50A, G52P, T54S, G108D
notes: The text calls the preparation partially purified; also called Nb-Ft clone 10; Nb-Ft-10; source: crude periplasmic extract of the phage display clone (pMECS); E. coli WK6, purified (periplasmic extract, cobalt IMAC)
Question: Does B11 bind (mouse liver ferritin)?
Answer: binds

B12: anti-ferritin nanobody clone 9 fused to HA-tagged mCherry (VHH)
VHH: B1 VHH with T23A, A33G, T50A, G52R, T54S, A75V, V79A, G108D
notes: the VHH as in m11; In the functional row this id stands for the same VHH fused to the N-terminus of TRPV1; also called Nb-Ft-9; Nb-Ft-HA-mCherry (clone 9)
Question: Which results are given for B12?
Answer: fold enrichment in the immunoprecipitate over cells with GFP-mFerritin alone [2]: 4.6 fold; binding result [3]: binds

B13: anti-ferritin nanobody clone 11 (VHH)
VHH: QVQLQESGGGLVQPGGSLRLSCVATGLSFAKSWMYWVRQAPGKGLEWVAQISPSSVLIQYPDSVSGRFTVSRDNAKNTLFLQMDSLKSEDTAVYYCSTEMDGTSRGQGTQVTVSS
notes: One of the 17 nanobodies of CDR3 groups 6 and 26; also called Nb-Ft clone 11; Nb-Ft-11; source: crude periplasmic extract of the phage display clone (pMECS)
Question: Does B13 bind (mouse liver ferritin)?
Answer: binds

B14: anti-ferritin nanobody clone 15 (VHH)
VHH: B13 VHH with V23A, T25S, S88P, T91A, V93Q, S97A, E99D, D101S, S104Y
notes: One of the 17 nanobodies of CDR3 groups 6 and 26; also called Nb-Ft clone 15; Nb-Ft-15; source: crude periplasmic extract of the phage display clone (pMECS)
Question: Does B14 bind (mouse liver ferritin)?
Answer: binds

B15: anti-ferritin nanobody clone 13 (VHH)
VHH: B13 VHH with T25S, K31N, V56L, Q59N, D62N, E99G
notes: One of the 17 nanobodies of CDR3 groups 6 and 26; also called Nb-Ft clone 13; Nb-Ft-13; source: crude periplasmic extract of the phage display clone (pMECS)
Question: Does B15 bind (mouse liver ferritin)?
Answer: binds

B16: anti-ferritin nanobody clone 16 (VHH)
VHH: B13 VHH with V23A, T25S, K31N, V56I, S88P
notes: One of the 17 nanobodies of CDR3 groups 6 and 26; also called Nb-Ft clone 16; Nb-Ft-16; source: crude periplasmic extract of the phage display clone (pMECS)
Question: Does B16 bind (mouse liver ferritin)?
Answer: binds

B17: anti-ferritin nanobody clone 4 (VHH)
VHH: B13 VHH with V23A, T25S, K31N, V56L, Q59N, S88P
notes: One of the 17 nanobodies of CDR3 groups 6 and 26; also called Nb-Ft clone 4; Nb-Ft-4; source: crude periplasmic extract of the phage display clone (pMECS)
Question: Does B17 bind (human spleen ferritin [1])?
Answer: binds

B18: anti-ferritin nanobody clone 17 (VHH)
VHH: QVQLQESGGGAVQAGGSLRLSCAASGLAFSSYGMGWFRQAPGKEREFVAAISWGDGTTNYADSVKGRLTISRDNARNTVYLQMNSLKVGDTAVYYCAAGLGAPRAVAGSFQHWGQGTQVTVSS
notes: The text calls the preparation partially purified; also called Nb-Ft clone 17; Nb-Ft-17; source: crude periplasmic extract of the phage display clone (pMECS); E. coli WK6, purified (periplasmic extract, cobalt IMAC)
Question: Does B18 bind (mouse liver ferritin)?
Answer: binds

B19: anti-ferritin nanobody clone 17 fused to HA-tagged mCherry (VHH)
VHH: B18 VHH
notes: the VHH as in m19; also called Nb-Ft-17; Nb-Ft-HA-mCherry (clone 17)
Question: Which results are given for B19?
Answer: fold enrichment in the immunoprecipitate over cells with GFP-mFerritin alone [4]: 6 fold; fold enrichment in the immunoprecipitate over cells with GFP-mFerritin alone [2]: 20.9 fold

B20: anti-ferritin nanobody clone 2 (VHH)
VHH: QVQLQESGGGLVQPGGSLRLSCAASGLAFSNYGMGWFRQAPGKEREFVSAVSWISDTTNYADSVKGRFTISRDNARNTVYLQMNSLKVEDTAVYYCAAGLGAPRVVAGSYQHWGQGTQVTVSS
notes: The text calls the preparation partially purified; also called Nb-Ft clone 2; Nb-Ft-2; source: crude periplasmic extract of the phage display clone (pMECS); E. coli WK6, purified (periplasmic extract, cobalt IMAC)
Question: B20 was tested. Which Kd (human spleen ferritin [5]) did it give?
Answer: 540 ± 200 nM

B21: anti-ferritin nanobody clone 2 fused to HA-tagged mCherry (VHH)
VHH: B20 VHH
notes: the VHH as in m4; In the functional rows this id stands for the same VHH fused to the N-terminus of TRPV1 (Nb-Ft-2-TRPV1^Ca2+); also called Nb-Ft-2; Nb-Ft-HA-mCherry (clone 2)
Question: For B21, which “fold enrichment in the immunoprecipitate” value [4] is on record?
Answer: 14.5 fold

Question: And the “fold enrichment in the immunoprecipitate” value [2]?
Answer: 58.1 fold

B22: anti-ferritin nanobody clone 8 (VHH)
VHH: QVQLQESGGGLVQPGGSLRLSCAASGFSFGDTWMYWVRQAPGKDIEWVAQISPSSVLINYPDSVSGRFTVGRDNAKNTLWLQMDSLKSEDTAVYYCATKMDGASRGQGTQVTVSS
notes: One of the 17 nanobodies of CDR3 groups 6 and 26; also called Nb-Ft clone 8; Nb-Ft-8; source: crude periplasmic extract of the phage display clone (pMECS)
Question: Does B22 bind (mouse liver ferritin)?
Answer: binds
